Data from patent publication US20100061992A1.

Biological target: mouse TIM-3 on cells (splenic dendritic cells, D2SC1 dendritic cell line, TIM-3+ Th1 T cells) (mouse) (UniProt Q8VIM0)
Experiment: cell-based or functional assay

Chain of UniProt Q8VIM0 (Q8VIM0 other isoform, or with tags, fused parts or gaps limits assumed): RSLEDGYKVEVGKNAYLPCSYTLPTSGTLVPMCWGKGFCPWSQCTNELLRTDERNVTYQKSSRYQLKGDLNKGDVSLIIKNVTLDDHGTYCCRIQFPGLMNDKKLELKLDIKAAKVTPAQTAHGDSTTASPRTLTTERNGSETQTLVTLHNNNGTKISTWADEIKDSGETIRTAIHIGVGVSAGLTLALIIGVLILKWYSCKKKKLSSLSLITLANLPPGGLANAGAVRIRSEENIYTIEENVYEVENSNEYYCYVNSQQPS

recombinant human galectin-9 (from UniProt O00182 1-355) (ligand)
production of TNF-α in response to LPS and LPS plus galectin-9, TIM-3-/- DCs relative to wild type DCs: 30 to 40%
